Laboratory results taken from publication PMC4138556.

Target: D/D domain of human regulatory RIIα subunits of PKA (human)
Test: AlphaScreen or HTRF

Chain of D/D domain of human regulatory RIIα subunits of PKA (human) (P13861 2-44): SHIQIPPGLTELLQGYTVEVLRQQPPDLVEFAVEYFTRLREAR

Substance: peptide AKAP18δ-L314E
- IC50: 12.7 nM
